{
  "source": "paper PMC13410764",
  "target": "Tr1 protein of Anaplasma phagocytophilum (recombinant, tagless) (Anaplasma phagocytophilum)",
  "assay": "SEC; gel filtration on a HiPrep Sephadex 75 16/600 column with Buffer B; apparent molecular weights from a standard curve of elution volumes",
  "data": [
    {"substance": "Tr1 protein of Anaplasma phagocytophilum (recombinant, tagless) (natural protein)", "values": [
      {"measurement": "stoichiometry N", "result": 4}
    ]}
  ]
}
